The source of these data is patent US20240376151A1, “STAPLED PEPTIDES AND METHODS THEREOF” (FOG PHARMACEUTICALS, INC., priority 2022, published 2024).

For one assay, the target named is T1, beta-catenin (Homo sapiens, UniProt P35222).
T1 construct: made in house; host or cells: E. coli BL21 (DE3) pLysS
T1 sequence (P35222 134-665): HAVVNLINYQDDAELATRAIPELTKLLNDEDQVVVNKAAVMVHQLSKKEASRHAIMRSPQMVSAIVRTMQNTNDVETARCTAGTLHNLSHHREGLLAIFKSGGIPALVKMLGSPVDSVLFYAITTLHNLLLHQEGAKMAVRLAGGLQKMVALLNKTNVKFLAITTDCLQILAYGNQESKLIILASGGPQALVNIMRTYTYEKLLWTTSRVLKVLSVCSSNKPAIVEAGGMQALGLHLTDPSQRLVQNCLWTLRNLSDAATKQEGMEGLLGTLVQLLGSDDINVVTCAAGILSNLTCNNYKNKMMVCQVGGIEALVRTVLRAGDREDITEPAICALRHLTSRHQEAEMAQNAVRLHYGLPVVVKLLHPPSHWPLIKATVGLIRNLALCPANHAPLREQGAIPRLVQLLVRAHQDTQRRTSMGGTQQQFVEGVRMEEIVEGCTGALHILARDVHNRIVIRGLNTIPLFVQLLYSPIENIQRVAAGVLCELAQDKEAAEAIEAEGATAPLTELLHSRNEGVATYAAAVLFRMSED
Nature of the assay: Phage Library Screening with NGS, beta-catenin. It is filed as binding. The settings on record: for Target Concentration 10 (phage screen NGS readout): beta-catenin target concentration 10; for Target Concentration 10 (phage screen NGS readout) / Target Concentration 30 (phage screen NGS readout) / Target Concentration 100 (phage screen NGS readout) / Target Concentration 300 (phage screen NGS readout): no competitor; for Target Concentration 30 (phage screen NGS readout): beta-catenin target concentration 30; for Target Concentration 100 (phage screen NGS readout): beta-catenin target concentration 100; for Target Concentration 300 (phage screen NGS readout): beta-catenin target concentration 300; for Target Concentration 1000 (phage screen NGS readout): beta-catenin target concentration 1000.

The target of the next assay is T2, RNF31 PUB domain (Homo sapiens, UniProt Q96EP0).
T2 construct: MBP-TEV (N, cleaved yes); made in house; host or cells: E. coli BL21 (DE3) pLysS
T2 sequence (Q96EP0 1-179): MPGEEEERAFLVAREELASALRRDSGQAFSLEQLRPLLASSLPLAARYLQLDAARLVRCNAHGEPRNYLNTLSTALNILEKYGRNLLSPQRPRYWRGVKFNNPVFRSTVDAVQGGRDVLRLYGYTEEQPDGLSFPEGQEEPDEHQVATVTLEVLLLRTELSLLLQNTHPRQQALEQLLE
Nature of the assay: Phage Library Screening with NGS, RNF31 PUB domain. Type of assay: binding. The following applies: for Phage library screen NGS readout, Target Concentration 10 / Phage library screen NGS readout, Target Concentration 30 / Phage library screen NGS readout, Target Concentration 100 / Phage library screen NGS readout, Target Concentration 300 / Phage library screen NGS readout, Target Concentration 1000: RNF31 PUB domain clusters C41-C45; for Phage library screen NGS readout, BLANK: clusters C41-C45.

[1] abbreviates: target concentration 1000, first column.
The mark [2] stands for this setting: target concentration 1000, second column.

For the molecule `CC(=O)N[C@@H](CC(=O)O)C(=O)N1CCC[C@H]1C(=O)N[C@@H](C)C(=O)N[C@@H](CC(C)C)C(=O)N[C@@H](Cc1c[nH]c2ccccc12)C(=O)N[C@@H](CCC(N)=O)C(=O)N[C@@H](CS)C(=O)N[C@@H](CCC(=O)O)C(=O)N[C@@H](Cc1c[nH]cn1)C(=O)N[C@@H](C)C(=O)N[C@@H](C)C(=O)N[C@@H](CC(C)C)C(=O)N[C@@H](CC(C)C)C(=O)N[C@@H](CS)C(=O)N[C@@H](CC(=O)O)C(=O)N[C@H](C(=O)N[C@@H](Cc1c[nH]cn1)C(N)=O)C(C)C`, the “Target Concentration BLANK (phage screen NGS readout)” value (shortened to “Target Concentration BLANK”) is recorded as 0 on beta-catenin (first column), 0 on beta-catenin (fourth column), 2 on beta-catenin (second column) and 1 at beta-catenin (third column). In addition, on beta-catenin, the “Target Concentration 10 (phage screen NGS readout)” value was determined as 13. Also, the “Target Concentration 30 (phage screen NGS readout)” value at beta-catenin came to 27. In addition, the “Target Concentration 100 (phage screen NGS readout)” value at beta-catenin turned out to be 122. Further, the “Target Concentration 300 (phage screen NGS readout)” value at beta-catenin is 158. In addition, the “Target Concentration 1000 (phage screen NGS readout)” value on beta-catenin (first 1000 column) and at beta-catenin (second 1000 column) was 246 each time.

Regarding `CC[C@H](C)[C@H](NC(=O)[C@H](C)NC(=O)[C@H](C)NC(=O)[C@H](Cc1c[nH]c2ccccc12)NC(=O)[C@H](CCC(=O)O)NC(=O)[C@H](CS)NC(=O)[C@H](CC(C)C)NC(=O)[C@H](CCC(=O)O)NC(=O)[C@H](CO)NC(=O)[C@H](C)NC(=O)[C@@H]1CCCN1C(=O)[C@H](CC(=O)O)NC(C)=O)C(=O)N[C@@H](Cc1c[nH]cn1)C(=O)N[C@@H](CS)C(=O)N[C@@H](CC(=O)O)C(=O)N[C@@H](CC(C)C)C(=O)N[C@H](C(N)=O)C(C)C`, the “Target Concentration BLANK” value at beta-catenin (first column) is recorded as 1; on beta-catenin (fourth column), 1; on beta-catenin (second column), 2; on beta-catenin (third column) it was 3. Further, the “Target Concentration 10 (phage screen NGS readout)” value at beta-catenin came out at 19. The “Target Concentration 30 (phage screen NGS readout)” value at beta-catenin was found to be 41. Also, on beta-catenin, the “Target Concentration 100 (phage screen NGS readout)” value was determined as 163. Further, the “Target Concentration 300 (phage screen NGS readout)” value on beta-catenin turned out to be 495. The results for the “Target Concentration 1000 (phage screen NGS readout)” value on beta-catenin (first 1000 column) and at beta-catenin (second 1000 column) were 605 and 424, respectively.

Consider DPAADDCVLAAHVCAYF, for which the “Target Concentration BLANK” value with beta-catenin (first column) is on record as 7; in the assay with beta-catenin (fourth column), 0; with beta-catenin (second column) it was 1; in the assay with beta-catenin (third column), 0. Moreover, the “Target Concentration 10 (phage screen NGS readout)” value in the assay with beta-catenin was found to be 8. In addition, in the assay with beta-catenin, the “Target Concentration 30 (phage screen NGS readout)” value was 46. For the same molecule, the “Target Concentration 100 (phage screen NGS readout)” value in the assay with beta-catenin was 144. In addition, the “Target Concentration 300 (phage screen NGS readout)” value with beta-catenin came out at 397. For the same molecule, the “Target Concentration 1000 (phage screen NGS readout)” value was 407 with beta-catenin (first 1000 column) and 343 with beta-catenin (second 1000 column).

Take DPAALSCYQAAFHCQYY: the “Target Concentration BLANK” value with beta-catenin (first column), with beta-catenin (fourth column), with beta-catenin (second column) and with beta-catenin (third column) was 0 in each case. In the assay with beta-catenin, the “Target Concentration 10 (phage screen NGS readout)” value is 0. In the assay with beta-catenin, the “Target Concentration 30 (phage screen NGS readout)” value stood at 0. Also, the “Target Concentration 100 (phage screen NGS readout)” value with beta-catenin turned out to be 1. For the same molecule, the “Target Concentration 300 (phage screen NGS readout)” value in the assay with beta-catenin turned out to be 5. In addition, the results for the “Target Concentration 1000 (phage screen NGS readout)” value with beta-catenin (first 1000 column) and in the assay with beta-catenin (second 1000 column) were 14 and 17, respectively.

For DPAAQRCTWAAIHCELI, the “Target Concentration BLANK” value was found to be 0 with beta-catenin (first column), 0 in the assay with beta-catenin (fourth column), 0 in the assay with beta-catenin (second column) and 2 with beta-catenin (third column). Besides, the “Target Concentration 10 (phage screen NGS readout)” value in the assay with beta-catenin is given as 0. Further, the “Target Concentration 30 (phage screen NGS readout)” value in the assay with beta-catenin is on record as 0. Besides, the “Target Concentration 100 (phage screen NGS readout)” value with beta-catenin is reported as 7. Moreover, the “Target Concentration 300 (phage screen NGS readout)” value in the assay with beta-catenin was determined as 39. Also, the figures for the “Target Concentration 1000 (phage screen NGS readout)” value in the assay with beta-catenin (first 1000 column) and with beta-catenin (second 1000 column) were 25 and 93, respectively.

On to DPADDFCMWAAEHCELL, for which the “Target Concentration BLANK” value is listed as 0 in the assay with beta-catenin (first column), 0 with beta-catenin (fourth column), 0 in the assay with beta-catenin (second column) and 1 in the assay with beta-catenin (third column). For the same molecule, the “Target Concentration 10 (phage screen NGS readout)” value with beta-catenin came to 10. The “Target Concentration 30 (phage screen NGS readout)” value with beta-catenin worked out at 12. Further, the “Target Concentration 100 (phage screen NGS readout)” value with beta-catenin turned out to be 81. In addition, in the assay with beta-catenin, the “Target Concentration 300 (phage screen NGS readout)” value is listed as 226. In addition, the figures for the “Target Concentration 1000 (phage screen NGS readout)” value in the assay with beta-catenin (first 1000 column) and with beta-catenin (second 1000 column) were 273 and 227, respectively.

As for DPADEDCILAAHVCRHF, the “Target Concentration BLANK” value with beta-catenin (first column), in the assay with beta-catenin (fourth column), in the assay with beta-catenin (second column) and in the assay with beta-catenin (third column) was 0 each time. The “Target Concentration 10 (phage screen NGS readout)” value with beta-catenin is recorded as 0. Further, the “Target Concentration 30 (phage screen NGS readout)” value with beta-catenin came to 6. Further, the “Target Concentration 100 (phage screen NGS readout)” value with beta-catenin amounted to 11. The “Target Concentration 300 (phage screen NGS readout)” value with beta-catenin amounted to 29. Also, the “Target Concentration 1000 (phage screen NGS readout)” value in the assay with beta-catenin (first 1000 column) came out at 25; with beta-catenin (second 1000 column), 21.

DPAYWDCMYAAFYCDDI: the “Phage library screen NGS readout, Target Concentration 10” value with RNF31 PUB domain is reported as 0. For the same molecule, the “Phage library screen NGS readout, Target Concentration 30” value in the assay with RNF31 PUB domain was 0. Moreover, in the assay with RNF31 PUB domain, the “Phage library screen NGS readout, Target Concentration 100” value worked out at 0. The “Phage library screen NGS readout, Target Concentration 300” value with RNF31 PUB domain stood at 3. Further, the “Phage library screen NGS readout, Target Concentration 1000” value is on record as 3 with RNF31 PUB domain (setting [1]) and 8 with RNF31 PUB domain (setting [2]). In addition, the “Phage library screen NGS readout, BLANK” value with RNF31 PUB domain (column 1 of 5) is 0; with RNF31 PUB domain (column 2 of 5), 0; with RNF31 PUB domain (column 3 of 5), 0; in the assay with RNF31 PUB domain (column 4 of 5) it was 0; in the assay with RNF31 PUB domain (column 5 of 5), 2.

With DPAYWHCLYAAASCDDI, in the assay with RNF31 PUB domain, the “Phage library screen NGS readout, Target Concentration 10” value was 0. The “Phage library screen NGS readout, Target Concentration 30” value with RNF31 PUB domain was found to be 0. The “Phage library screen NGS readout, Target Concentration 100” value with RNF31 PUB domain was 0. Further, the “Phage library screen NGS readout, Target Concentration 300” value in the assay with RNF31 PUB domain turned out to be 2. The “Phage library screen NGS readout, Target Concentration 1000” value amounted to 8 with RNF31 PUB domain (setting [1]) and 4 with RNF31 PUB domain (setting [2]). Besides, the “Phage library screen NGS readout, BLANK” value in the assay with RNF31 PUB domain (column 1 of 5) came to 0; with RNF31 PUB domain (column 2 of 5), 3; with RNF31 PUB domain (column 3 of 5), 0; with RNF31 PUB domain (column 4 of 5) it was 0; with RNF31 PUB domain (column 5 of 5), 2.

In the case of DPAYWQCIYAAWDCDQM, the “Phage library screen NGS readout, Target Concentration 10” value with RNF31 PUB domain is reported as 0. The “Phage library screen NGS readout, Target Concentration 30” value in the assay with RNF31 PUB domain amounted to 0. In addition, in the assay with RNF31 PUB domain, the “Phage library screen NGS readout, Target Concentration 100” value is 1. In addition, the “Phage library screen NGS readout, Target Concentration 300” value with RNF31 PUB domain was determined as 4. Further, the “Phage library screen NGS readout, Target Concentration 1000” value with RNF31 PUB domain (setting [1]) was 13; with RNF31 PUB domain (setting [2]), 6. Besides, the “Phage library screen NGS readout, BLANK” value with RNF31 PUB domain (column 1 of 5) worked out at 1; with RNF31 PUB domain (column 2 of 5), 2; in the assay with RNF31 PUB domain (column 3 of 5) it was 2; in the assay with RNF31 PUB domain (column 4 of 5) it was 1; in the assay with RNF31 PUB domain (column 5 of 5), 0.

With DPAYYTCDWAAIYCDYH, in the assay with RNF31 PUB domain, the “Phage library screen NGS readout, Target Concentration 10” value stood at 0. Further, the “Phage library screen NGS readout, Target Concentration 30” value with RNF31 PUB domain amounted to 0. Moreover, the “Phage library screen NGS readout, Target Concentration 100” value with RNF31 PUB domain was 0. Further, in the assay with RNF31 PUB domain, the “Phage library screen NGS readout, Target Concentration 300” value came to 1. The “Phage library screen NGS readout, Target Concentration 1000” value in the assay with RNF31 PUB domain (setting [1]) and with RNF31 PUB domain (setting [2]) was 6 throughout. Besides, the “Phage library screen NGS readout, BLANK” value came out at 0 in the assay with RNF31 PUB domain (column 1 of 5); 1 with RNF31 PUB domain (column 2 of 5); 0 with RNF31 PUB domain (column 3 of 5); 0 with RNF31 PUB domain (column 4 of 5); 0 with RNF31 PUB domain (column 5 of 5).
